In patent US6358897B1, “Alkyl trypsin compositions and methods of use in contact lens cleaning and disinfecting systems” (Alcon Laboratories, Inc., priority 1996, dated 2002):

Columns and labels:
lysozyme deposits = assay: Cleaning efficacy on lysozyme-deposited contact lenses, fluorescence method; settings: for Lysozyme, Total: hydrolysate plus ACN/TFA extract; for Lysozyme, ACN/TFA Extract: lens extract after overnight cleaning at room temperature; for % Cleaning Efficacy: overnight soak at room temperature, no rubbing; for Lysozyme, Hydrolysate: soaking solution after overnight cleaning at room temperature
Protocol: The following example illustrates the cleaning efficacy of a multi-purpose composition (Example 6) of the present invention. The cleaning efficacy was determined using the following protocol. 1. Physiological/Thermal Combination Model Each lens was first soaked in a 5 ml lysozyme solution (native or C14-labeled, 1.0 mg/ml in 0.05M phosphate buffer containing 0.9% sodium chloride, pH 7.4) at 37° C. for 24 hours, then removed to a saline solution (2 ml) and heated at 90° C. for 15 minutes. 2. Cleaning and Assessment of Lysozyme Deposits Each deposited lens was placed in a 5 ml of a test solution and agitated in a rotary shaker at room temperature overnight (usually >12 hours). The compositions tested were: 1) the Example 6 composition (Me-trypsin), 2) 1 drop of Example 3B (except Me-trypsin was replaced by trypsin) in 5 mL of the Example 2B composition and 3) 1 drop of Supraclens® Daily Protein Remover (pancreatin) in 5 mL of the Example 2B composition. After rinsing the lens by dipping three times in three consecutive 40 ml saline solution, the lens was subjected to extraction with 5 ml ACN/TFA solution (acetonitrile/trifluoroacetic acid/water: 500/1/500 v/v) for at least 2 hours. No mechanical rubbing was applied to the cleaning regimen. Both the extract and the soaking solution were then assessed for lysozyme by the protein intrinsic fluorescence method using a fluorescence spectrophotometer (excitation wavelength is 280 nm, emission wavelength is 354 nm), or by a scintillation counter for the C14-lysozyme. The quantification of lysozyme was based on a lysozyme standard curve established using the same vehicle and instrumental setting used for the lens extract and lens soaking solution. The results are show in Tables 9-10.

azocasein [1] = assay: Stability of Me-trypsin, trypsin and pancreatin in a disinfecting composition (Example 5C), azocasein method; format: physicochemical; settings: for % Activity Remaining: Example 5C composition, 50 μg/ml (pancreatin 375 μg/ml)
Protocol: Azocasein Method The following solutions are used in this assay: 1) Buffer solution: 0.05 M sodium phosphate buffer containing 0.9% sodium chloride, pH 7.6. 2) Substrate solution: 2 mg/ml azocasein in the buffer solution mentioned above. The assay is initiated by mixing 1 ml of an appropriately diluted (such that the enzyme activity is in the range of standard curve) enzyme composition in phosphate buffer with 2 ml of azocasein substrate solution (2 mg/ml). After incubation at 37° C. for 20 minutes, the mixture is removed from the incubator and 1 ml of trichloroacetic acid to (14% w/v) is added to stop the enzyme reaction. The mixture is vortexed well and allowed to stand at room temperature for 20 minutes. After centrifuging at 2500 rpm (with a Beckman GS-6R Centrifuge) for 15 minutes, the supernatant is filtered with a serum sampler. 2 ml of the clear yellow filtrate is then adjusted to a neutral pH with 2 ml of 0.5 N sodium hydroxide and the absorbance of 440 nm wavelength light is measured with a spectrophotometer. The amount of azocasein hydrolyzed is calculated based on a standard curve of known concentrations of azocasein solution developed under identical conditions. An enzyme activity unit (“AZ U”) is defined as that amount of enzyme which hydrolyzes 1 μg of azocasein substrate/minute at 37° C. The following is an example of the stability of Me-trypsin in a disinfecting composition of the present invention as compared to analogous compositions containing trypsin or pancreatin. The enzymes were solubilized in the Example 5C composition. The compositions were stored at room temperature or 30° C. for up to 42 days. At various time points, enzyme activity was assayed using the azocasein method.

azocasein [2] = assay: Stability of Me-trypsin in the Example 2A composition, azocasein method; format: physicochemical
Protocol: Azocasein Method The following solutions are used in this assay: 1) Buffer solution: 0.05 M sodium phosphate buffer containing 0.9% sodium chloride, pH 7.6. 2) Substrate solution: 2 mg/ml azocasein in the buffer solution mentioned above. The assay is initiated by mixing 1 ml of an appropriately diluted (such that the enzyme activity is in the range of standard curve) enzyme composition in phosphate buffer with 2 ml of azocasein substrate solution (2 mg/ml). After incubation at 37° C. for 20 minutes, the mixture is removed from the incubator and 1 ml of trichloroacetic acid to (14% w/v) is added to stop the enzyme reaction. The mixture is vortexed well and allowed to stand at room temperature for 20 minutes. After centrifuging at 2500 rpm (with a Beckman GS-6R Centrifuge) for 15 minutes, the supernatant is filtered with a serum sampler. 2 ml of the clear yellow filtrate is then adjusted to a neutral pH with 2 ml of 0.5 N sodium hydroxide and the absorbance of 440 nm wavelength light is measured with a spectrophotometer. The amount of azocasein hydrolyzed is calculated based on a standard curve of known concentrations of azocasein solution developed under identical conditions. An enzyme activity unit (“AZ U”) is defined as that amount of enzyme which hydrolyzes 1 μg of azocasein substrate/minute at 37° C. […] At the appointed time, aliquots were tested for enzyme activity by the azocasein method. Activity levels were compared with initial levels and expressed as percent remaining activity.

In the case of “Trypsin [Native Trypsin, reference compound]”, the “Lysozyme, Total” value (lysozyme deposits) is reported as 317.40 μg/Lens, the “Lysozyme, ACN/TFA Extract” value (lysozyme deposits) is reported as 83.92 μg/Lens and the “% Cleaning Efficacy” value (lysozyme deposits) is reported as 73.6%. For the same substance, the “Lysozyme, Hydrolysate” value (lysozyme deposits) was 233.45 μg/Lens, the “% Activity Remaining” value (azocasein [1]; 30° C., 1 day) was 90.8% and the “% Activity Remaining” value (azocasein [1]; 30° C., 2 days) was 78.7%. For the same substance, the “% Activity Remaining” value (azocasein [1]; 30° C., 5 days) was 66.7%, the “% Activity Remaining” value (azocasein [1]; 30° C., 7 days) was 62.4% and the “% Activity Remaining” value (azocasein [1]; 30° C., 14 days) was 52.4%. The “% Activity Remaining” value (azocasein [1]; RT, 1 day) was 102.5%, the “% Activity Remaining” value (azocasein [1]; RT, 2 days) was 101.5% and the “% Activity Remaining” value (azocasein [1]; RT, 5 days) was 98.5%. The “% Activity Remaining” value (azocasein [1]; RT, 7 days) was 93.6%, the “% Activity Remaining” value (azocasein [1]; RT, 14 days) was 85.7% and the “% Activity Remaining” value (azocasein [1]; RT, 21 days) was 79.6%. For the same substance, the “% Activity Remaining” value (azocasein [1]; RT, 28 days) was 74.4%, the “% Activity Remaining” value (azocasein [1]; RT, 35 days) was 73.8% and the “% Activity Remaining” value (azocasein [1]; RT, 42 days) was 61.3%.

For methyl trypsin [Me-Trypsin], the “Lysozyme, Total” value (lysozyme deposits) was 274.35 μg/Lens, the “Lysozyme, ACN/TFA Extract” value (lysozyme deposits) was 72.90 μg/Lens and the “% Cleaning Efficacy” value (lysozyme deposits) was 73.4%. For the same substance, the “Lysozyme, Hydrolysate” value (lysozyme deposits) was 201.45 μg/Lens, the “% Activity Remaining” value (azocasein [1]; 30° C., 1 day) was 99.7% and the “% Activity Remaining” value (azocasein [1]; 30° C., 2 days) was 97.8%. The “% Activity Remaining” value (azocasein [1]; 30° C., 5 days) was 96.1%, the “% Activity Remaining” value (azocasein [1]; 30° C., 7 days) was 93.5% and the “% Activity Remaining” value (azocasein [1]; 30° C., 14 days) was 91.8%. For the same substance, the “% Activity Remaining” value (azocasein [1]; 30° C., 21 days) was 86.7%, the “% Activity Remaining” value (azocasein [1]; 30° C., 28 days) was 82.7% and the “% Activity Remaining” value (azocasein [1]; 30° C., 35 days) was 80.0%. For the same substance, the “% Activity Remaining” value (azocasein [1]; 30° C., 42 days) was 76.3%, the “% Activity Remaining” value (azocasein [1]; RT, 1 day) was 100.9% and the “% Activity Remaining” value (azocasein [1]; RT, 2 days) was 100.8%. For the same substance, the “% Activity Remaining” value (azocasein [1]; RT, 5 days) was 97.9%, the “% Activity Remaining” value (azocasein [1]; RT, 7 days) was 99.4% and the “% Activity Remaining” value (azocasein [1]; RT, 14 days) was 100.0%. The “% Activity Remaining” value (azocasein [1]; RT, 21 days) was 98.5%, the “% Activity Remaining” value (azocasein [1]; RT, 28 days) was 96.6% and the “% Activity Remaining” value (azocasein [1]; RT, 35 days) was 96.5%. For the same substance, the “% Activity Remaining” value (azocasein [1]; RT, 42 days) was 94.0%, the “stability in a disinfecting composition over analogous compositions containing trypsin or pancreatin” value (azocasein [1]; summary of Table 2) was “superior stability” and the “Percent Remaining Activity” value (azocasein [2]; 40° C., 1 week) was 100%. For the same substance, the “Percent Remaining Activity” value (azocasein [2]; 40° C., 2 weeks) was 100%, the “Percent Remaining Activity” value (azocasein [2]; 40° C., 4 weeks) was 93.7% and the “Percent Remaining Activity” value (azocasein [2]; 40° C., 6 weeks) was 100%. For the same substance, the “Percent Remaining Activity” value (azocasein [2]; 40° C., 8 weeks) was 100%, the “Percent Remaining Activity” value (azocasein [2]; 40° C., 12 weeks) was 100% and the “Percent Remaining Activity” value (azocasein [2]; 45° C., 1 week) was 100%. The “Percent Remaining Activity” value (azocasein [2]; 45° C., 2 weeks) was 100%, the “Percent Remaining Activity” value (azocasein [2]; 45° C., 4 weeks) was 92.7% and the “Percent Remaining Activity” value (azocasein [2]; 45° C., 6 weeks) was 97.8%. The “Percent Remaining Activity” value (azocasein [2]; 45° C., 8 weeks) was 100%, the “Percent Remaining Activity” value (azocasein [2]; 45° C., 12 weeks) was 97.6% and the “Percent Remaining Activity” value (azocasein [2]; 50° C., 1 week) was 91.8%. For the same substance, the “Percent Remaining Activity” value (azocasein [2]; 50° C., 2 weeks) was 91.8%, the “Percent Remaining Activity” value (azocasein [2]; 50° C., 4 weeks) was 82.4% and the “Percent Remaining Activity” value (azocasein [2]; 50° C., 6 weeks) was 81.3%. For the same substance, the “Percent Remaining Activity” value (azocasein [2]; 50° C., 8 weeks) was 75.2%, the “Percent Remaining Activity” value (azocasein [2]; 50° C., 12 weeks) was 71.5% and the “Percent Remaining Activity” value (azocasein [2]; 55° C., 1 week) was 82.1%. The “Percent Remaining Activity” value (azocasein [2]; 55° C., 2 weeks) was 75.3%, the “Percent Remaining Activity” value (azocasein [2]; 55° C., 4 weeks) was 46.5% and the “Percent Remaining Activity” value (azocasein [2]; RT, 1 week) was 100%. For the same substance, the “Percent Remaining Activity” value (azocasein [2]; RT, 2 weeks) was 100%, the “Percent Remaining Activity” value (azocasein [2]; RT, 4 weeks) was 94.1% and the “Percent Remaining Activity” value (azocasein [2]; RT, 6 weeks) was 100%. The “Percent Remaining Activity” value (azocasein [2]; RT, 8 weeks) was 100% and the “Percent Remaining Activity” value (azocasein [2]; RT, 12 weeks) was 100%.
